{
  "source": "paper PMC3295803",
  "assay_in_all_cases": "pressure-induced dissociation followed by light scattering; recombinant oligomers 0.2 mg/ml in 25 mM Tris pH 7.5, 25°C, 1 to 3000 bar in steps of 270 bar and back; without or with 2-mercaptoethanol",
  "key": {"[1]": {"biological_target": "AgB recombinant subunit rAgB8/1 (Echinococcus granulosus)"}, "[2]": {"biological_target": "AgB recombinant subunit rAgB8/2 (Echinococcus granulosus)"}, "[3]": {"biological_target": "AgB recombinant subunit rAgB8/3 (Echinococcus granulosus)"}},
  "data": [
    {"substance": "AgB recombinant subunit rAgB8/1", "values": [
      {"measurement": "decrease of the light scattering signal after compression", "setting": "[1]", "value": 60, "unit": "%"}
    ]},
    {"substance": "AgB recombinant subunit rAgB8/2", "values": [
      {"measurement": "decrease of the light scattering signal after compression", "setting": "[2]", "value": 30, "unit": "%"}
    ]},
    {"substance": "AgB recombinant subunit rAgB8/3", "values": [
      {"measurement": "decrease of the light scattering signal after compression", "setting": "[3]", "value": 30, "unit": "%"}
    ]}
  ]
}
